From FireProtDB (doi:10.1021/bi300982v)

B1: Cytochrome c-552, P04164 (parent)
chain: QADGAKIYAQCAGCHQQNGQGIPGAFPPLAGHVAEILAKEGGREYLILVLLYGLQGQIEVKGMKYNGVMSSFAQLKDEEIAAVLNHIATAWGDAKKVKGFKPFTAEEVKKLRAKKLTPQQVLAERKKLGLK

Variants of: B1
Details: Thermus thermophilus, pH 7, sodium phosphate 50 mM, transition: 2, reversible: yes, structure 1C52, whole UniProt chain shown; for denaturant midpoint (higher = more stable): 25 °C, GdnHCl; for Tm / change of melting temperature, mutant - wild type (higher = more stable) / heat capacity change of unfolding / unfolding enthalpy (calorimetric) / unfolding free energy: Thermal, CD

Variant	denaturant midpoint (higher = more stable) (absorbance) [M]	denaturant midpoint (higher = more stable) (far-UV-CD) [M]	denaturant midpoint (higher = more stable) (heme-CD) [M]	Tm [°C]	change of melting temperature, mutant - wild type (higher = more stable) [°C]	heat capacity change of unfolding [kcal/mol/K]	unfolding enthalpy (calorimetric) [kcal/mol]	unfolding free energy [kcal/mol]
QADGAKIYAQCAGCHQQNGQGIPGAFPPLAGHVAEILAKEGGREYLILVLLYGLQGQIEVKGMKYNGVHSSFAQLKDEEIAAVLNHIATAWGDAKKVKGFKPFTAEEVKKLRAKKLTPQQVLAERKKLGLK [M69H]	3.7	4	3.3	99	4	0.51	59.3	8.13
QADGAKIYAQCAGCHQQNGQGIPGAFPPLAGHVAEILAKEGGREYLILVLLYGLQGQIEVKGMKYNGVASSFAQLKDEEIAAVLNHIATAWGDAKKVKGFKPFTAEEVKKLRAKKLTPQQVLAERKKLGLK [M69A]	4.2	4.7	4.5	93	-2	0.29	28.2	2.39
